US20240002499A1, “ANTI-CLIC1 PROTEIN ANTIBODIES AND THE DIAGNOSTIC AND THERAPEUTIC USES THEREOF” (Universita' Degli Studi di Milano, priority 2020, published 2024)
Entries after “also recorded” stand apart in the source; their conditions may differ.

Columns and labels:
pMAP38 = test: Western blot of phosphorylated MAP38 in COLO201; format: cell-based; conditions: COLO201, 72 h of treatment
tmCLIC1 ion channel = molecular target: T1, tmCLIC1 ion channel (Homo sapiens, UniProt O00299); test: Patch clamp of CLIC1-mediated chloride current in primary human tumour cultures; format: cell-based; conditions: perforated patch clamp; glioblastoma, colorectal and prostate primary human tumour cultures; perfusion of antibody
T1 construct: endogenous in cells; host or cells: primary human glioblastoma, colorectal cancer and prostate cancer cells
Procedure: The microelectrodes were obtained from borosilicate capillaries with a diameter of 1.5 mm. Micropipettes were produced with a P-97 Brown-Flaming puller (Sutter Instruments, Novato, CA), with which the capillaries were forged to a tip diameter of 1-1.5 μm and electrical resistance of 5-8 MΩ.
The perforated patch clamp configuration was used for the whole-cell experiments, employing the antibiotic gramicidin (final concentration in pipette 5 μg/ml) which forms pores in the membrane that are only permeable to monovalent cations; in this way, the cytoplasmic concentration of the chloride ion remains unchanged throughout the experiment. The ion currents were digitised at 5 kHz and filtered at 1 kHz. Clampex 9.2 was used as the data acquisition and analysis programme.
In the time-course experiments, the potential was set on the basis of the resting potential of each cell, and a voltage step of +60 mV was applied every 5 seconds. The current measured is that observed at the end of the voltage step lasting 800 ms. When the amplitude of the current reaches a constant value, the antibody and IAA94 are added in sequence.
For the current-voltage graph, the voltage step protocol used to isolate the currents consisted of voltage variations ranging from −60 mV to +60 mV, with progressive increments of 20 mV lasting 800 ms. […]

CLIC1 = molecular target: T2, CLIC1 (Homo sapiens, UniProt O00299); test: Whole-cell patch clamp on HEK cells transfected with CLIC1 plasmid; format: cell-based; conditions: HEK cells overexpressing CLIC1; voltage steps from −60 to +80 mV; IAA94 50 μM
T2 construct: expressed in transfected cells; host or cells: HEK cells
Procedure: FIG. 17. Current/voltage relationship of CLIC1 membrane current in whole-cell patch clamp experiments. HEK cells were transfected with CLIC1 plasmid to overexpress the CLIC1 protein. After recording control current (filled cycles; n=5) cells were perfused alternatively with the polyclonal antibody (open triangles; n=7), tmCLIComab (inverse open triangles; n=10) and with 50 μM IAA94 (filled squared; n=11). The whole cells current is expressed as a current density.
The reference sequence of the CLIC1 protein used in the experiments described in the present patent application is filed at UniProt under number UniProtKB—000299 (CLIC1 human), and described in the article Harrop S. J. et al., “Crystal structure of a soluble form of the intracellular chloride ion channel CLIC1 (NCC27) at 1.4-Å Resolution”; The Journal of Biological Chemistry, Vol. 276 No. 48, November 30, pp. 44993-45000 (2001).
The potential was set on the basis of the resting potential of each cell (between 0 and −80 mV). The CLIC1-mediated chlorine currents were isolated from other ion currents by mathematical subtraction of the residual current following perfusion of 100 μM IAA94 dissolved in the external solution.

microglial cells = test: ROS production in cultured microglial cells; format: cell-based, mice; conditions: after addition of β-amyloid and antibody
Procedure: A second functional experiment performed on microglial cells involved measuring the production of reactive oxygen species (ROS), which contribute to creating a highly oxidising environment harmful to the neurones. Once again (FIG. 5), a physiological increase in cytoplasmic ROS was recorded (baseline), with ROS production after addition of β-amyloid, and finally, cell oxidation during the simultaneous presence of amyloid peptide and the tmCLIC1omab antibody.

tmCLIC1 = molecular target: T3, tmCLIC1 (Homo sapiens, UniProt O00299); test: Immunofluorescence on monocytes isolated from peripheral blood; format: cell-based; conditions: monocytes of Alzheimer's disease patients and controls, fluorescent secondary antibody
T3 construct: monocytes isolated from the peripheral blood of patients with a diagnosis of Alzheimer's disease and controls; endogenous in cells; host or cells: human peripheral blood monocytes (Alzheimer's disease patients and healthy controls)
Procedure: For each individual, 8 ml of peripheral blood was collected in BD Vacutainer® CPT™ test tubes with sodium citrate, gently mixed by inversion and centrifuged at room temperature for 20 min. at 1600 rpm to separate three distinct phases: a bottom layer containing red blood cells, an intermediate layer containing mononuclear cells, and a top layer containing plasma. The layer of mononuclear cells was collected together with part of the plasma and transferred to a centrifuge tube. PBS was added until a final volume of […] was reached, and it was gently mixed by inversion and centrifuged for 10 min. at 300 rpm. The resulting pellet underwent two further washes in 5 ml of PBS, and was used for the subsequent experiments.
The pellet of mononuclear cells isolated from the blood was counted and divided into samples containing an equal number of cells (1×10^6 cells/sample). Each sample was resuspended in 90 μl of cold staining solution (0.5% BSA, 2 mM EDTA in PBS) and, after the addition of 10 μl of FcR blocker (Miltenyi Biotec), was incubated in ice for 15 min. 10 μl of primary antibody diluted in staining solution was then added, and the sample was incubated for 1 h in ice. At the end of the incubation period, each sample was washed with 1 ml of cold staining solution and centrifuged at 350 rpm for 5 min. […]

COLO201 = COLO201 spheroids, 3D culture; format: cell-based; conditions: treated 24 to 96 hours, area normalized on initial area
Procedure: To evaluate whether tmCLIC1omab is able to penetrate across tumor spheroids, a 3D culture was performed. After the complete formation of spheroids, treatments were added and the area was measured every 24 hours up to 96 hours. The area at each time point was then normalized on the initial spheroids' area.
Spheroids were formed with hanging-drop method and then plated in rounded 96 plates coated with 5% of agar. After the complete formation of spheroids, treatments were added and the area was measured every 24 hours up to 96 hours. The area at each time point was then normalized on the initial spheroids' area.

B1: tmCLIC1omab: IgG1 class antibody containing the heavy chain variable region SEQ ID NO:13 and the light chain variable region SEQ ID NO:14 (antibody, listed as Mus musculus, V domains shown)
VH: EVMLVESGGGLVKPGGSLKLSCAASGFAFSNYAMSWIRQIPEKRLEWVATISTGGSSTFYPDSVKGRFTISRDNAKNTLYLQMSSLRSEDTAMYYCTRHAYEAWFAYWGQGTLVTVSA
VL: QIVLTQSPALMSASPGEKVTMTCSASSSVSYMYWYQQRPRSSPKPWIYLTSTLASGVPTRFSGSGSGTSYSLTISSMEAEDAATYYCQQWNSHPLTFGSGTKLEIK
B1 was tested, and the “expression of pMAP38” value (pMAP38) was “downregulated”, the “CLIC1-mediated chloride current (current density/voltage)” value (tmCLIC1 ion channel) was “almost totally eliminated; also recorded: depressed and almost eliminated the membrane current” and the “inhibition of CLIC1 ionic whole-cell current” value (CLIC1) was “matched only by tmCLIC1omab”. The ROS production (microglial cells) was “falls to the control level”, the “specificity of staining on monocytes” value (tmCLIC1) was “specificity of the antibody for the membrane protein” and the “spheroids' area / proliferation of spheroids versus control” value (COLO201) was “significantly smaller compared to the control from 48 h; also recorded: impair proliferation of spheroids significantly after 48 hours”.
